Reference: US20240132578A1

What was measured:
Test in all cases: cell-based or functional assay
[1] = biological target: HIV-1 Env of isolate 94UG103 (clade A) (HIV-1)
[2] = biological target: HIV-1 92UG005 Env (pseudovirus) (HIV-1)
[3] = biological target: HIV-1 92UG024 Env (pseudovirus) (HIV-1)
[4] = biological target: HIV-1 APV6 Env (pseudovirus) (HIV-1)
[5] = biological target: HIV-1 JRCSF Env (pseudovirus) (HIV-1) (UniProt P20871)
[6] = biological target: HIV-1 MGRM-C-028 Env (pseudovirus) (HIV-1)
[7] = biological target: aMLV envelope (negative control pseudovirus)
[8] = biological target: HIV-1 envelope glycoprotein (Env) of isolate APV13 (HIV-1)
[9] = biological target: HIV-1 envelope glycoprotein (Env) of isolate JRCSF (HIV-1) (UniProt P20871)
[10] = biological target: HIV-1 envelope glycoprotein (Env) of isolate MGRM-D-001 (HIV-1)
[11] = biological target: HIV-1 envelope glycoprotein (Env) of isolate MGRM-D-018 (HIV-1)
[12] = biological target: HIV-1 93UG077 envelope glycoprotein (Env), clade A pseudovirus (HIV-1)
[13] = biological target: HIV-1 APV13 envelope glycoprotein (Env), clade B pseudovirus (HIV-1)
[14] = biological target: HIV-1 CMU02 envelope glycoprotein (Env), clade AE pseudovirus (HIV-1)
[15] = biological target: HIV-1 JR-CSF Env K343A (HIV-1 isolate JR-CSF) (UniProt P20871)
[16] = biological target: HIV-1 MGRM-A-010 envelope glycoprotein (Env), clade A pseudovirus (HIV-1)
[17] = biological target: HIV-1 92BR020 Env (HIV-1 isolate 92BR020 (clade B))
[18] = biological target: HIV-1 93IN905 Env (HIV-1 isolate 93IN905 (clade C))
[19] = biological target: HIV-1 93UG077 Env (HIV-1 isolate 93UG077 (clade A))
[20] = biological target: HIV-1 92RW020 envelope glycoprotein (Env) on virus (HIV-1, clade A, isolate 92RW020)
[21] = biological target: HIV-1 92TH021 envelope glycoprotein (Env) on virus (HIV-1, clade AE, isolate 92TH021)
[22] = biological target: HIV-1 92UG024 envelope glycoprotein (Env) on virus (HIV-1, clade D, isolate 92UG024)
[23] = biological target: HIV-1 MGRM-C-028 envelope glycoprotein (Env) on virus (HIV-1, clade C, isolate MGRM-C-028)
[24] = biological target: HIV-1 JRFL envelope glycoprotein (Env) (HIV-1)
[25] = biological target: HIV-1 Env of pseudovirus AC10 (HIV-1)
[26] = biological target: HIV-1 Env of pseudovirus DU422 (HIV-1)
[27] = biological target: HIV-1 Env of pseudovirus PVO.4 (HIV-1)
[28] = biological target: HIV-1 Env of pseudovirus ZM249 (HIV-1)
[29] = biological target: HIV-1 92BR020 envelope glycoprotein (Env) on pseudovirus (HIV-1)
[30] = biological target: HIV-1 92RW020 envelope glycoprotein (Env) on pseudovirus (HIV-1)

Sequence of 5329_C19 (PGT-136) (antibody) (VH): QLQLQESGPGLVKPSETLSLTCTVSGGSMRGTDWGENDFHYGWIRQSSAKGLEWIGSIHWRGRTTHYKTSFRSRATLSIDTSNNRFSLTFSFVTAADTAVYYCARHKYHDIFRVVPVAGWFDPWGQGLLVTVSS
Sequence of 5329_C19 (PGT-136) (antibody) (VL): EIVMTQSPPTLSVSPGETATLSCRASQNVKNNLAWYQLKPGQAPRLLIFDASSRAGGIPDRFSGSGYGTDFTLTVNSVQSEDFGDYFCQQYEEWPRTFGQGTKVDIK
Sequence of 1443_C16 (PG16) (TCN-116) (antibody) (VH): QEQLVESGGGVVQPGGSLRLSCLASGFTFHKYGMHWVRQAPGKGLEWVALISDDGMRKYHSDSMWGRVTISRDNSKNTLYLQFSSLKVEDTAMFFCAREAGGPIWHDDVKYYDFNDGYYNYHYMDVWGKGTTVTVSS
Sequence of 1443_C16 (PG16) (TCN-116) (antibody) (VL): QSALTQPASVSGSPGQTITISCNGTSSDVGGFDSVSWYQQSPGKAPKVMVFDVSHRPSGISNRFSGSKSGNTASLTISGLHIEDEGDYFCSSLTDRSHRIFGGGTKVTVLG

In the case of 1496_C09 (PG9) (TCN-109) (antibody), the Neutralization IC80 [1] is reported as 1.95 µg/mL, the Neutralization IC90 [1] is reported as 5.54 µg/mL and the neutralization IC50 [1] is reported as 0.31 µg/mL.
5123_A06 (PGT-125) (antibody) showed a Neutralization by PGT-125, IC50 [2] of over 10 µg/mL, a Neutralization by PGT-125, IC80 [2] of over 10 µg/mL and a Neutralization by PGT-125, IC90 [2] of over 10 µg/mL. For the same substance, the Neutralization by PGT-125, IC95 [2] was over 10 µg/mL, the Neutralization by PGT-125, IC50 [3] was over 10 µg/mL and the Neutralization by PGT-125, IC80 [3] was over 10 µg/mL. It also gave a Neutralization by PGT-125, IC90 [3] of over 10 µg/mL, a Neutralization by PGT-125, IC95 [3] of over 10 µg/mL and a Neutralization by PGT-125, IC50 [4] of 0.0359 µg/mL. The Neutralization by PGT-125, IC80 [4] was 0.133 µg/mL, the Neutralization by PGT-125, IC90 [4] was 0.288 µg/mL and the Neutralization by PGT-125, IC95 [4] was 0.597 µg/mL. The Neutralization by PGT-125, IC50 [5] was 0.006 µg/mL, the Neutralization by PGT-125, IC80 [5] was 0.0196 µg/mL and the Neutralization by PGT-125, IC90 [5] was 0.0392 µg/mL. It also gave a Neutralization by PGT-125, IC95 [5] of 0.0741 µg/mL, a Neutralization by PGT-125, IC50 [6] of 5.78 µg/mL and a Neutralization by PGT-125, IC80 [6] of over 10 µg/mL. The Neutralization by PGT-125, IC90 [6] was over 10 µg/mL, the Neutralization by PGT-125, IC95 [6] was over 10 µg/mL and the Neutralization by PGT-125, IC50 [7] was over 10 µg/mL. For the same substance, the Neutralization by PGT-125, IC80 [7] was over 10 µg/mL, the Neutralization by PGT-125, IC90 [7] was over 10 µg/mL and the Neutralization by PGT-125, IC95 [7] was over 10 µg/mL.
5141_B17 (PGT-126) (antibody) gave a Neutralization IC80 [8] of 0.0411 µg/mL, a Neutralization IC90 [8] of 0.084 µg/mL and a Neutralization IC95 [8] of 0.162 µg/mL. It also gave a neutralization IC50 [8] of 0.012 µg/mL, a Neutralization IC80 [9] of 0.018 µg/mL and a Neutralization IC90 [9] of 0.0339 µg/mL. It also gave a Neutralization IC95 [9] of 0.0608 µg/mL, a neutralization IC50 [9] of 0.0061 µg/mL and a Neutralization IC80 [10] of 0.333 µg/mL. It also gave a Neutralization IC90 [10] of 0.832 µg/mL, a Neutralization IC95 [10] of 1.8 µg/mL and a neutralization IC50 [10] of 0.0639 µg/mL. It also gave a Neutralization IC80 [11] of 0.0391 µg/mL, a Neutralization IC90 [11] of 0.0918 µg/mL and a Neutralization IC95 [11] of 0.205 µg/mL. It also gave a neutralization IC50 [11] of 0.0093 µg/mL.
4858_P08 (PGT-123) (antibody) was tested, and the IC50, pseudovirus neutralization [12] was 0.0303 µg/mL, the IC80 (pseudovirus neutralization) [12] was 0.143 µg/mL and the IC90 (pseudovirus neutralization) [12] was 0.35 µg/mL. The IC95 (pseudovirus neutralization) [12] was 0.78 µg/mL, the IC50, pseudovirus neutralization [13] was 0.222 µg/mL and the IC80 (pseudovirus neutralization) [13] was 0.879 µg/mL. The IC90 (pseudovirus neutralization) [13] was 1.87 µg/mL, the IC95 (pseudovirus neutralization) [13] was 3.5 µg/mL and the IC50, pseudovirus neutralization [14] was over 10 µg/mL. For the same substance, the IC80 (pseudovirus neutralization) [14] was over 10 µg/mL, the IC90 (pseudovirus neutralization) [14] was over 10 µg/mL and the IC95 (pseudovirus neutralization) [14] was over 10 µg/mL. It also gave a Fold IC50 increase relative to wild-type [15] of 0.3 fold, an IC50, pseudovirus neutralization [16] of 0.492 µg/mL and an IC80 (pseudovirus neutralization) [16] of 2.79 µg/mL. The IC90 (pseudovirus neutralization) [16] was 6.44 µg/mL and the IC95 (pseudovirus neutralization) [16] was over 10 µg/mL.
For 4838_L06 (PGT-121) (antibody), the Neutralization IC80 [17] was 0.0532 µg/mL, the Neutralization IC90 [17] was 0.101 µg/mL and the Neutralization IC80 [18] was 0.0302 µg/mL. It also gave a Neutralization IC90 [18] of 0.0645 µg/mL, a Neutralization IC90 [19] of 0.369 µg/mL and a Neutralization IC95 [19] of 0.74 µg/mL.
With 4877_D15 (PGT-122) (antibody) the Neutralization IC80 [20] was 0.0407 µg/mL, the Neutralization IC90 [20] was 0.113 µg/mL and the Neutralization IC95 [20] was 0.289 µg/mL. The neutralization IC50 [20] was 0.0072 µg/mL, the Neutralization IC80 [21] was over 10 µg/mL and the Neutralization IC90 [21] was over 10 µg/mL. It also gave a Neutralization IC95 [21] of over 10 µg/mL, a neutralization IC50 [21] of over 10 µg/mL and a Neutralization IC80 [22] of over 10 µg/mL. The Neutralization IC90 [22] was over 10 µg/mL, the Neutralization IC95 [22] was over 10 µg/mL and the neutralization IC50 [22] was over 10 µg/mL. For the same substance, the Neutralization IC80 [23] was over 10 µg/mL, the Neutralization IC90 [23] was over 10 µg/mL and the Neutralization IC95 [23] was over 10 µg/mL. The neutralization IC50 [23] was 2.06 µg/mL.
In the case of 5329_C19 (PGT-136) (antibody), the Neutralization IC80 [24] is reported as over 10 µg/mL, the Neutralization IC90 [24] is reported as over 10 µg/mL and the Neutralization IC95 [24] is reported as over 10 µg/mL. For the same substance, the neutralization IC50 [24] was over 10 µg/mL.
In the case of 1443_C16 (PG16) (TCN-116) (antibody), the IC50, pseudovirus neutralization (TZM-bl assay) [25] is reported as under 0.01 µg/mL, the IC50, pseudovirus neutralization (TZM-bl assay) [26] is reported as 0.59 µg/mL and the IC50, pseudovirus neutralization (TZM-bl assay) [27] is reported as 12.3 µg/mL. It also gave an IC50, pseudovirus neutralization (TZM-bl assay) [28] of under 0.01 µg/mL.
Substance 5343_B08 (PGT-135) (antibody) has a Neutralization IC80 [29] of 0.253 µg/mL, a Neutralization IC90 [29] of 0.43 µg/mL and a Neutralization IC95 [29] of 0.72 µg/mL. It also gave a neutralization IC50 [29] of 0.104 µg/mL, a Neutralization IC80 [30] of 3.46 µg/mL and a Neutralization IC90 [30] of over 10 µg/mL. The Neutralization IC95 [30] was over 10 µg/mL and the neutralization IC50 [30] was 0.157 µg/mL.
